From publication PMC9481602 (2022)

Tests used:
[1] = molecular target: ubiquitin acetylated at K48 (UniProt P0CG48 1-76, acetyllysine (AcK) at position 48); experiment: NMR
nonmodified ubiquitin = nonmodified ubiquitin (UniProt P0CG48 1-76); experiment: NMR

RFQQQLEQLNAMGFLNREANLQALIATGGDINAAIERLLGS (domain or fragment) [UBA domain of human Ubiquilin-2]
Kd [1]: 1300 nM
Kd (nonmodified ubiquitin): 500 nM
